Experiment: yeast display, Sf9 membrane polyspecificity reagent, FACS + sequencing; frameworks hold sequencing errors
Method in brief: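 A nanobody's polyreactivity label depends on the gate it was sorted from. Yeast display cells were stained with 10% biotinylated, detergent-solubilized Sf9 membrane reagent for 1 hour at 4 °C, enriched on streptavidin microbeads and sorted by FACS. The low and high (top ~1%) gates were set on anti-HA fluorescence for expression and streptavidin fluorescence for reagent binding.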

Sequence | polyreactivity (PSR sort gate)
QVQRVESGGALVQAGGSHRLSCAASGSIFYAYAMGWYRLAPGKERELVAAIRSSDSRTYYADSVKGRFTISRDNAKKTVYLQMNCLKPEETAVYYCAAEGSRNVKFDYCGQGTQVTVSS | high polyreactivity
QVQRVESGGGIVQAGGSHRLSCAASGSIFRYYAMGWYRQAPGKEREFVAAISSSGGSTYYADSVKGRFTISRDNAKNTVYLQMNSLKPEDTAVYYCARDWPSYYARQYDYWGQGTQVTVSS | high polyreactivity
QVQRVESGGGIVQAGGSLRLSCAASGSTFSYYAMGWYRQAPGKERELVAAISSSGGNTYYADSVKGRFTISRDNAKNTVYLQMNSLKPEDTAVYYCAKLYRYIYGGMDYWGQGTQVTVSS | high polyreactivity
QVQRVESGGGIVQARGSLRLSCAASGRIFKTNAMRCYRQSRGKERELVAAISSSGGSTYYADSVKGRFTISRDNAKNTVDLQRNSLNPEDTAVYYCAADGRTKGYDSLGQGTQVTVSS | high polyreactivity
QVQRVESGGGLVQAGGSLRLRCAASGRIFQGNAMGWYRQAPGKERELVAAITWRGGTTYYADSVKGRFTISRDNAKNTVYLQMNSLKPEDTAVYYCNADWWRTLESDYWGQGTQVTVSS | low polyreactivity
QVQRVESGGGLVQAGGSLRLSCAASGFIFDDKAMGWYRQAPGKERELVAAITSGGGSTYYADSVKGRFTISRDNAKNTVYLQMNSLKPEDTAVYYCNAVPSQHDEFDYWGQGTQVTVSS | low polyreactivity
QVQRVESGGGLVQAGGSLRLSCAASGGIFAVNVMGWYRPAPGKERELVAAITSTGSTYYADSVKGRFTISRDNAKNTVYLQMNSLKPEDTAVYYCAADYVYYDSYDDTVFGYEYWGQGTQVTVSS | high polyreactivity
QVQRVESGGGLVQAGGSLRLSCAASGGIFFYNAMGWYRQAPGIERELVATIRGGGSTNYADSVKGRFTISRDNAKNTVYLQMNSLKPEDTAVYFCAAVDRRGANYNYWGQGTQVTVSS | high polyreactivity
QVQRVESGGGLVQAGGSLRLSCAASGIIFGSYAMGGYRQAPGKERELVAAITSIGTRTYYADSVKGRFTISRDNAKNTVYLQMNSLKPEDTAVYYCNAPRFWSRHGLRDYWGQGTQVTVSS | high polyreactivity
QVQRVESGGGLVQAGGSLRLSCAASGIIFQSYAMGWYRHAPGKERELVAAISRRGGRTYYADSVKGRFTISRDNAKNTVYLQMNSLKPEDTAVYYCADRYRYAPYDYWGQGTQVTVSS | high polyreactivity
QVQRVESGGGLVQAGGSLRLSCAASGITFRTNTMGWYRQAPGKERELVAAITWDAGSTYYADSVKGRFTISRDNAKHTVYVQMKSLKPEDTAVYYCAARLSYLYGLYPYYYWGQGTQLTVSS | high polyreactivity
QVQRVESGGGLVQAGGSLRLSCAASGITFWGYAMGWYRQAPGKDREFVARINWSGGRTYYAESVKGRFRISRDNAKNTVYLQMNSLKPEDTAVYYCNVVLRSVVSGDYWGQGTQVTVSS | high polyreactivity
QVQRVESGGGLVQAGGSLRLSCAASGLTFDPKDMGWYRQAPGKERELVAAISWSSGSTYYADSVKGRFTISRDNAKNTVYLQMNSLKPEYTAVYYCAAYFTLLFGTELYDYDYWGQGTQVTVSS | high polyreactivity
QVQRVESGGGLVQAGGSLRLSCAASGNIFGYAMGWYRQAPGKERELVAAISRGGGTYYADSVKGRFTISRDNAKNTVYLQMNSLKPEDTADYYCAARLVKGYSRMNYWGQGTQVTVSS | high polyreactivity
QVQRVESGGGLVQAGGSLRLSCAASGNIFVYYAMGWYRQAPGKERELVAAISSDVSTYYADSVKGRFTISRDNAKNTVYLQMNSLKPEDTAVYYCATTGYGSYVIYWGQGTQVTVSS | low polyreactivity
QVQRVESGGGLVQAGGSLRLSCAASGRIFLTNARGWYRQAPGKERELVPAITSGGSTYYADSVKGRFTISRDNAKNTVYLQMNSLKPEDTAVYYCNDDTDRYWPYEYDYWGQGTQVTVSS | low polyreactivity
QVQRVESGGGLVQAGGSLRLSCAASGSIFAVYAMGWYRQAPGNERELVAAINRSGDSTYFADSVKGRFTISRDNAKNTVYLQMKSLKPEDTAVYYCAADWYWWYTRSWVDYWGQGTQVTVSS | high polyreactivity
QVQRVESGGGLVQAGGSLRLSCAASGSLFYLYAMGWYRQAPGKERELVARITIRGGSTYYADSVKGRFTISRDNAKNTVYLQMNSLKPEDTAVYYCAARRPYGDYDYWGQGTQVTVSS | high polyreactivity
QVQRVESGGGLVQAGGSLRLSCAATGFTFSWYVMGWYRQAPGKERELVATITNRGGSTYYSDSVKGRFTISRDNAKNTVYLQMNSLKPEDPAVYYCAARKKGSRVGFDYWGQGTQVTVSS | high polyreactivity
QVQRVESGGGLVQAGGSLRLSCADSGFIFRRYAMGWYRQAPGKERELVAAITSSGGTTYYADSVKGRFTISRDNAKNTVYLQMNSLKPEDTAVYYCNAVRGVYARRSDYWGQGTEVTVSS | high polyreactivity
QVQRVESGGGLVQAGGSLRLSCDASGFTFAFYAMGWYRQAPGKERELVAAITGSGGSTYYADSVKGRFTISRDNAKNTVYLQMNRLKPEDTAVYYCNTYHQFSYDYWGQGTQVTVSS | high polyreactivity
QVQRVESGGGLVQAGGSLRLSSAACGRIFSTYAMGRYRQAPGKERDLVPAIDWDGGGTYYADSVKGRFTISRDNAKNTVYLQMNSLKPEDTAVYYCAAETDLANGTSPSDYWGQGTQVTVSS | low polyreactivity

Sequence | polyreactivity (PSR sort gate)
QVQRVESGGGLVQAGGSLRLTSAGSGLTFILNAMGWYRQAPGKEREFVAAISRSGVRTYYADSVKGRFTISRDNAKNTVYLQMNSLKPEDTAVYYCAAAAQRGSKPRVELDYWGQGSQVTVSS | high polyreactivity
QVQRVESGGGLVQAGGTLRLSCAASGFIFGYYAMGWSRQAPGKERELVAAISRSGGRTYYADSVKGRFTISRANAKNTVYLQLNSLKPEDTAVYYCAKSGYQYADDMDYLGQGTQVTVSS | high polyreactivity
QVQRVESGGGLVQEGGSLRLSCAASGLIFAIYAMGWYRQAPGKDRELVAAMRWSGASTYADSVKGRFTNSRDNAYNTVYLQMISLKREDTAVYYCAADDLLDYDYWGQGTQVTVSS | low polyreactivity
QVQRVESGGRLVQAGGSLRLSCAASGFIFRYYAMGWYRQAPGKERELVAAISSRGGTTYYADSVKGRFTISRDNPNNTVYLQMNSLKPEDTPVDYGAAGGGRFRHGGRDYWGQGTQVTVSS | high polyreactivity
QVQRVESGGVLVQAGGSLRLSCAASGGIFYYYTMGWYRQAPGKERELVAAINWSGGSTYYADSVKGRFTISRDNAKNTVYLQMNSLKPEDTAVYYCNAVYRHPVTYGYWGQGTQVTVSS | high polyreactivity
QVQRVESGRGLVHAGGRLRLSCAASGSIFTYYPMGWSRPAPGKERELVAAISYSGGTTYYADSVKGRFTISRDNAKNTVYLQMNSLKPEDTAVYYCNVDADYESKWLSVGYDYWGQGTQVTVSS | low polyreactivity
QVQRVESGVGLVQAGGSLRLSCAASGLTFLWYAMGWYRQAPGKERELVAAITSGGRTKYADSVKGRFTISRDNAKNTVYLQMNSLKPEDTAVYYCAAYPQWWGYDYWGQGTQVTVSS | high polyreactivity
QVQRVESGVGLVQAGGSLRLSCAASGRIFRPYAMGWFRQARGNERELVAAITYSGGSTRYADSVKGRFTLSRDNAKNTVYIQMNSLKPEDTAVYYCAADLSYQDDPRWSYDYWGQGTHVTVSS | high polyreactivity
QVQRVESGVRLVQAGGSLRLSCASSGSIFRYYTMGWYRQAPGKERELVAAISRSGGSTYYADSVKGRFTISRDNAKNTVYLQMNSLKPVDTGVYYCAARYKRAQGYREGDYWGQGTQVTVSS | high polyreactivity
QVQRVESWGGLVQAGGSLRLSCAASGSIFDVYTMGWYRQAPGKERELVAAINTGGGSTYYADSVKGRFTISRDNAKNTVYFQMNSLKPEDTAVYYCAAQWWWKRPVRYEYWGQGTLVTVSS | low polyreactivity
QVQSVESGGGLVQAGGSLRLSCAASGRTFSIYGMGWYRQAPGKERELVAAISWRSGSTYYADSVKGRFTISRDNAKNTVYLKMNSLKPEDTAVYYCAKRYILGYKPYSYWGQGTQVTVSS | high polyreactivity
QVQVVDSGGGLVQAGGSLRLSCAASGLTIVKNVMGWYRQAPGKERELVAAISRRGGSTYYADSVKGRFTISRDNAKNTVYLQMNSLKPEDTAVYYCNAVLNQLSYIYPAVGYWGQGTQVTVSS | high polyreactivity
QVQVVESGGGFVQAGGSLSLSCAASGSTFPYYVMGCYREAPGKERELVAAISGSGTRTYYADSVKGRFTISRDNAKNTVYLQMNSLKPEDTAVYYCAARKYPQGFDYWGQGTQVTVSS | low polyreactivity
QVQVVESGGGLVKAGGSLRLSCAASGGTFGNYAMGWYRQAPRKERELVAAINRSDGGTYYADSVKGRFTISRDNAKNTVYLQMNSLKPEDTAVYYCNAVDFYYDEPYDYWGQGTQVTVSS | low polyreactivity
QVQVVESGGGLVQAGGSLGLSCAASGSIFGTNAMGWSRQAPGKERELVAAISSSGTSTYYADSVKGRFTISRDKAKNTDYLQMNSLKPEDTAVYYCAAATNWGGEYWGQGTQVTVSS | high polyreactivity
QVQVVESGGGLVQAGGSLRLSCAASGFIFPYYAMGWYRQAPGKEWELVAAISWSGSNTYYADSVKGRFTISRDNAKNTDYLQMNSLKPEATAVYYCAARYSVYYFVQRNGRYDDWGQGTQVTVSS | high polyreactivity
QVQVVESGGGLVQAGGSLRLSCAASGFTFILYAMGWYRQAPGKERELVAAISWSGGRTYYADSVKGRFTISRDNAKNTVYLQMNSLKPEDTAVYYCNAPYWTSKSRFDYWGQGTQVTVSS | low polyreactivity
QVQVVESGGGLVQAGGSLRLSCAASGGTFGRYTMGWYRQAPGKERELVAAITYGGGSTYYADSVKGRFTISRDNAKNTVYLQMNSLKPEETAVYYCARRGILRGSRYDYWGQGTQVTVSS | high polyreactivity
QVQVVESGGGLVQAGGSLRLSCAASGRIFGVNAMGWYRQAPGKERELVAVISSGGSTYYADSVKGRFTISRDNAKKTVYLQMNSLKPEDTAVYYCNAVVGRWFPYNLSDYWGQGTQVTVSS | low polyreactivity
QVQVVESGGGLVQAGGSLRLSCAASGRTFVSYAMGWYRQATGKERELVAAISSSGGRTYYADSVKGRFTISRDNAMNTVYLQMNSLKPEDTAVYYCYAVRFISARYDYWGQGTQVTVSS | high polyreactivity
QVQVVESGGGLVQAGGSLRLSCAASGSIFAYYAMGWYRQAPGKERELVAVISSDGSTYYADSVKGRFTISRDNAKNTVYLQMNSLKPEDTAVYYCAAYPGKYSRYNYWGQGTQVTVSS | high polyreactivity
